Here are results for two molecules from patent publication US20050074855A1 (Regeneron, published 2005).

This test has as its target T1, human IL-6 (human, UniProt P05231 30-212).
T1 construct: Soluble analyte injected at 1.25, 2.5 and 5 nM in the BIAcore assay; also called hIL-6
The experiment in a line: SPR (BIAcore 2000), fusion captured by anti-human Fc, hIL-6 injected. Here is the method:
Affinity Measurements. The affinity of the various scFv-scFv-Fc fusion proteins for human IL-6 was measured using a BIAcore 2000. […] Kinetic analysis using BIAevaluation software was performed to obtain the association and dissociation rate constants.
(In general: SPR reads the build-up and loss of mass on a sensor chip optically.)

T1 sequence (P05231 30-212 limits assumed): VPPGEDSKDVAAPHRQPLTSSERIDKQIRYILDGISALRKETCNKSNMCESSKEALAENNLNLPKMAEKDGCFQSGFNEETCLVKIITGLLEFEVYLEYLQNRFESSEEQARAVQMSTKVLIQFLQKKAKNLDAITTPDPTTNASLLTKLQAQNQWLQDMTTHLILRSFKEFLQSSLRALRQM

B1: 8F10 ScFv-Fc (Fc fusion)
chain: QVQLQQSGAELAKPGASVKMSCKASGYTFTTYWMHWIKQRPGQGLEWIGYINPSTGYSEFNQKFNDKATLTADRSSSTAYMQLNSLTSEDSAVYYCARDAYYGNYEDYWGQGTTLTVSSAGGGGSGGGGSGGGGSSIVMTQTPKFLLVSAGDRVTITCKASQSVSYDVAWYQQKPGQSPKLLIYYESNRYSGVPDRFTGSGNGTDFTFTISTVQAEDLAVYFCQQVYTSPYTFGGGTKLEIKR
notes: how it was built is not described; not shown: Fc domain of human IgG1
For the molecule B1, the Kd (in general, the constant that tells how readily two partners part at equilibrium) is 0.43 nM.

B2: 8F10.8F10 ScFv-ScFv-Fc (Fc fusion)
chain: QVQLQQSGAELAKPGASVKMSCKASGYTFTTYWMHWIKQRPGQGLEWIGYINPSTGYSEFNQKFNDKATLTADRSSSTAYMQLNSLTSEDSAVYYCARDAYYGNYEDYWGQGTTLTVSSAGGGGSGGGGSGGGGSSIVMTQTPKFLLVSAGDRVTITCKASQSVSYDVAWYQQKPGQSPKLLIYYESNRYSGVPDRFTGSGNGTDFTFTISTVQAEDLAVYFCQQVYTSPYTFGGGTKLEIKRGGGGSGGGGSGGGGSQVQLQQSGAELAKPGASVKMSCKASGYTFTTYWMHWIKQRPGQGLEWIGYINPSTGYSEFNQKFNDKATLTADRSSSTAYMQLNSLTSEDSAVYYCARDAYYGNYEDYWGQGTTLTVSSAGGGGSGGGGSGGGGSSIVMTQTPKFLLVSAGDRVTITCKASQSVSYDVAWYQQKPGQSPKLLIYYESNRYSGVPDRFTGSGNGTDFTFTISTVQAEDLAVYFCQQVYTSPYTFGGGTKLEIKR
notes: Monospecific tandem scFv-Fc; not shown: Fc domain of human IgG1
Turning to B2, the Kd stood at 0.296 nM.
